The source of these data is publication doi:10.1101/270363 (bioRxiv, 2018).

This assay addresses F-actin (filamentous actin) (rabbit, UniProt P68135 1-377). Description: co-sedimentation.

B1: CC-WH2 fragment of nPIST (1st - 267th aa) (domain or fragment)
chain: MSAGGPCPAGAGGGPGGSSCPVGVSPGGVSMFRWLEVLEKEFDKAFVDVDLLLGEIDPDQADITYEGRQKMTSLSSCFAQLCHKAQTVSQINHKLEAQLVDLRSELTETQAEKVVLEKEVHEQLLQLHSTQLQLHAKTGQSVDSGAIKAKLSVHSVEDLERELEANKTEKVKEARLEAEVKLLRKENEALRRHIAVLQAEVYGARLAAKYLDKELAGRVQQIQLLGRDMKGPAHDKLWNQLEAEIHLHRHKTVIRACRGRNDLKRPM
Take B1: the binding result is recorded as “binds”.

B2: CC2 fragment of nPIST (140th - 210th aa) (domain or fragment)
chain: QSVDSGAIKAKLSVHSVEDLERELEANKTEKVKEARLEAEVKLLRKENEALRRHIAVLQAEVYGARLAAKY
B2: the binding result is “binds”.

B3: WH2 fragment of nPIST (200th - 289th aa) (domain or fragment)
chain: EVYGARLAAKYLDKELAGRVQQIQLLGRDMKGPAHDKLWNQLEAEIHLHRHKTVIRACRGRNDLKRPMQAPPGHDQDSLKKSQGVGPIRK
Take B3: the binding result is “binds”.

B4: CC1 fragment of nPIST (1st - 138th aa) (domain or fragment)
chain: MSAGGPCPAGAGGGPGGSSCPVGVSPGGVSMFRWLEVLEKEFDKAFVDVDLLLGEIDPDQADITYEGRQKMTSLSSCFAQLCHKAQTVSQINHKLEAQLVDLRSELTETQAEKVVLEKEVHEQLLQLHSTQLQLHAKT
For B4, the binding result is on record as “binds”.
